From paper PMC5457915, “Real-time analysis of the binding of fluorescent VEGF165a to VEGFR2 in living cells: Effect of receptor tyrosine kinase inhibitors and fate of internalized agonist-receptor complexes” (Biochemical Pharmacology, 2017)
“And” between values parts separate entries of the source, which are not always exact repeats. Equal entries are not always repeated. “Also recorded” adds a separate entry of the source.

What was measured:
VEGFR2 = VEGFR2 (Homo sapiens, UniProt P35968); assay: Confocal / structured illumination microscopy of VEGF165a-TMR and VEGFR2 location after RTKI pre-treatment; type: cell-based; set-up: full length VEGFR2, tagged with the bioluminescent protein NanoLuc; IL-6 signal peptide (N); expressed in transfected cells; conditions: RTKI 30 min pre-incubation, then 10 nM VEGF165a-TMR 30 min
Experimental: On the day of the assay, cells were washed three times with HBSS/0.1% protease free BSA (vehicle). Receptor tyrosine kinase inhibitors were added at this point as aliquots to the appropriate wells and cells incubated for 30 min at 37 °C. Cells were then stimulated with 10 nM VEGF165a-TMR for 30 min at 37 °C in the dark.
All cells were then fixed using 3% PFA/PBS (10 min at room temperature), washed with PBS and mounted onto slides using Prolong Gold antifade reagent (P10144; Thermo Fisher Scientific, USA). TetraSpeck™ microspheres (0.1 μm; T7279, Thermo Fisher Scientific, USA) were included in each experiment to allow X/Y/Z channel alignment correction in image processing. […] Images were manually processed with consistent raw scaling between and within experiments.

NLuc-VEGFR2 = target: T1, NLuc-VEGFR2 (Homo sapiens, UniProt P35968); assay: NanoBRET ligand binding (saturation/competition) in living HEK293T NLuc-VEGFR2 cells; conditions: maximal response relative to binding of VEGF165a-TMR alone; RTKI 30 min pre-treatment, 60 min ligand
T1 construct: full length VEGFR2, tagged with the bioluminescent protein NanoLuc; IL-6 signal peptide (N); expressed in transfected cells
Experimental: On the day of the assay, medium was replaced with 50 μl per well HBSS/0.1% protease free BSA. Where appropriate, RTKIs were added 30 min prior to agonist. For competition experiments, a fixed concentration of fluorescent VEGF165a-TMR was added simultaneously with competing unlabeled VEGF isoforms to triplicate wells for the time specified (10, 30 or 60 min) and plates co-incubated at 37 °C in the dark. For saturation experiments a range of concentrations of VEGF165a-TMR were added in the presence or absence of a competing concentration (30 nM) of unlabeled VEGF165a and incubated for 60 min at 37 °C in the dark. The NanoLuc substrate furimazine (N1130; Promega Corporation, USA) was then added at a final concentration of 10 μM. […] For all experiments, sequential recordings were performed at room temperature using a PHERAstar FS plate reader (BMG Labtech, Germany) using 460 nm (80 nm bandpass; donor NanoLuc emission) and >610 nm longpass filters (acceptor emission). Raw BRET ratios were calculated from the ratio of acceptor to donor emission values. For real-time ligand association kinetics experiments, cells were incubated with vehicle for 30 min at 37 °C. Furimazine (10 μM) was then added and plates equilibrated at 37 °C in the PHERAstar FS plate reader for 5 min.
Equilibrium binding: All data were analysed using Prism 6 (GraphPad; San Diego, CA, USA). NanoBRET competition experiments were fitted as raw BRET ratios using non-linear least squares regression (variable slope) with no constraints used. Saturation curves were fitted simultaneously for total (VEGF165a-TMR alone) and non-specific binding (top concentration of competing VEGF165a alone) using both one and two site fits. Background and non-specific binding parameters were shared across all data sets.
Binding affinities (Ki) of the unlabeled ligands were calculated using the Cheng-Prusoff equation: Ki=IC50/1+[L]/KD where [L] is the concentration of fluorescent ligand used (nM). KD values (nM) were derived from saturation binding curves. […]

[1] = target: NLuc-VEGFR2 (full length human VEGFR2 with NanoLuc on its N-terminus) (human) (UniProt P35968); assay: FRET or BRET; NanoBRET competition on living HEK293T NLuc-VEGFR2 cells; vehicle 30 min at 37 °C, then VEGF165a-TMR (0.5-3 nM) with unlabeled VEGF165a for 60 min at 37 °C
[2] = target: NLuc-VEGFR2 (full length human VEGFR2 with NanoLuc on its N-terminus) (human) (UniProt P35968); assay: FRET or BRET; NanoBRET competition on living HEK293T NLuc-VEGFR2 cells; vehicle 30 min at 37 °C, then VEGF165a-TMR (0.5-3 nM) with unlabeled VEGF165a for 10 min at 37 °C
[3] = target: NLuc-VEGFR2 (full length human VEGFR2 with NanoLuc on its N-terminus) (human) (UniProt P35968); assay: FRET or BRET; NanoBRET competition on living HEK293T NLuc-VEGFR2 cells; 1 μM cediranib 30 min at 37 °C, then VEGF165a-TMR (0.5-3 nM) with unlabeled VEGF165a for 60 min at 37 °C
[4] = target: NLuc-VEGFR2 (full length human VEGFR2 with NanoLuc on its N-terminus) (human) (UniProt P35968); assay: FRET or BRET; NanoBRET competition on living HEK293T NLuc-VEGFR2 cells; 1 μM cediranib 30 min at 37 °C, then VEGF165a-TMR (0.5-3 nM) with unlabeled VEGF165a for 30 min at 37 °C
[5] = target: NLuc-VEGFR2 (full length human VEGFR2 with NanoLuc on its N-terminus) (human) (UniProt P35968); assay: FRET or BRET; NanoBRET competition on living HEK293T NLuc-VEGFR2 cells; vehicle 30 min at 37 °C, then VEGF165a-TMR (0.5-3 nM) with unlabeled VEGF165a for 30 min at 37 °C
[6] = target: NLuc-VEGFR2 (full length human VEGFR2 with NanoLuc on its N-terminus) (human) (UniProt P35968); assay: FRET or BRET; NanoBRET competition on living HEK293T NLuc-VEGFR2 cells; fixed VEGF165a-TMR (0.1-3 nM) added simultaneously with increasing unlabeled VEGF isoform, 60 min at 37 °C, HBSS/0.1% BSA; IC50 (molar) converted to pKi by Cheng-Prusoff; also linear regression of IC50 against [VEGF165a-TMR]; apparent
[7] = target: NLuc-VEGFR2 (full length human VEGFR2 with NanoLuc on its N-terminus) (human) (UniProt P35968); assay: FRET or BRET; NanoBRET competition on living HEK293T NLuc-VEGFR2 cells; 1 μM cediranib 30 min at 37 °C, then VEGF165a-TMR (0.5-3 nM) with unlabeled VEGF165a for 10 min at 37 °C
[8] = target: NLuc-VEGFR2 (full length human VEGFR2 with NanoLuc on its N-terminus) (human) (UniProt P35968); assay: FRET or BRET; NanoBRET saturation on living HEK293T NLuc-VEGFR2 cells, 30 min pre-incubation with 1 μM cediranib (Fig. 6b)
[9] = target: NLuc-VEGFR2 (full length human VEGFR2 with NanoLuc on its N-terminus) (human) (UniProt P35968); assay: FRET or BRET; NanoBRET real-time association kinetics on living HEK293T NLuc-VEGFR2 cells; VEGF165a-TMR 1-20 nM, read every 30 s for 16 min at 37 °C; kobs against concentration, linear only at the three lowest concentrations
[10] = target: VEGF165a-TMR (fluorescent VEGF165a labeled with 6-TMR-PEG-CBT on a single N-terminal cysteine of each protomer) (human); assay: fluorescence correlation spectroscopy; solution FCS of VEGF165a-TMR (0.25-10 nM) in HBSS with 0.1% protease-free BSA; also without BSA and with 10 mM DTT (30 min at 37 °C); number of fluorescent particles against the concentration calculated for a dimer
[11] = target: VEGF165a-TMR (fluorescent VEGF165a labeled with 6-TMR-PEG-CBT on a single N-terminal cysteine of each protomer) (human); assay: SDS-PAGE with and without DTT, fluorescence scan; purified VEGF165a-TMR in the presence or absence of 100 mM DTT, scanned on a Typhoon 9400 (Ex 532 nm, Em 580 nm)
[12] = target: NLuc-VEGFR2 (full length human VEGFR2 with NanoLuc on its N-terminus) (human) (UniProt P35968); assay: FRET or BRET; NanoBRET saturation on living HEK293T NLuc-VEGFR2 cells, without cediranib (Fig. 6b)
[13] = target: NLuc-VEGFR2 (full length human VEGFR2 with NanoLuc on its N-terminus) (human) (UniProt P35968); assay: FRET or BRET; NanoBRET saturation on living HEK293T NLuc-VEGFR2 cells; VEGF165a-TMR 0.1-3 nM with or without 30 nM unlabeled VEGF165a (non-specific binding), 60 min at 37 °C, HBSS/0.1% BSA; one site fit; apparent
[14] = target: T2, NLuc-VEGFR2 (full length human VEGFR2 with NanoLuc on its N-terminus) (human, UniProt P35968-1 20-1356); assay: FRET or BRET; NanoBRET competition on living HEK293T NLuc-VEGFR2 cells; fixed VEGF165a-TMR (0.1-3 nM) added simultaneously with increasing unlabeled VEGF isoform, 60 min at 37 °C, HBSS/0.1% BSA; IC50 (molar) converted to pKi by Cheng-Prusoff; also linear regression of IC50 against [VEGF165a-TMR]; apparent; conditions: one partner purified
T2 construct: VEGFR2, human, subcloned from an Origene plasmid (NM_002253); called full length VEGFR2; Open reading frame: IL-6 signal peptide, NanoLuc, Gly-Ser-Ser-Gly(AIA) linker, VEGFR2 (vector pF-sNnK CMV/neo); also called NanoLuc VEGFR2; NanoLuc-tagged VEGFR2; not shown: NanoLuc, N-terminal, kept
T2 sequence (P35968 20-1356): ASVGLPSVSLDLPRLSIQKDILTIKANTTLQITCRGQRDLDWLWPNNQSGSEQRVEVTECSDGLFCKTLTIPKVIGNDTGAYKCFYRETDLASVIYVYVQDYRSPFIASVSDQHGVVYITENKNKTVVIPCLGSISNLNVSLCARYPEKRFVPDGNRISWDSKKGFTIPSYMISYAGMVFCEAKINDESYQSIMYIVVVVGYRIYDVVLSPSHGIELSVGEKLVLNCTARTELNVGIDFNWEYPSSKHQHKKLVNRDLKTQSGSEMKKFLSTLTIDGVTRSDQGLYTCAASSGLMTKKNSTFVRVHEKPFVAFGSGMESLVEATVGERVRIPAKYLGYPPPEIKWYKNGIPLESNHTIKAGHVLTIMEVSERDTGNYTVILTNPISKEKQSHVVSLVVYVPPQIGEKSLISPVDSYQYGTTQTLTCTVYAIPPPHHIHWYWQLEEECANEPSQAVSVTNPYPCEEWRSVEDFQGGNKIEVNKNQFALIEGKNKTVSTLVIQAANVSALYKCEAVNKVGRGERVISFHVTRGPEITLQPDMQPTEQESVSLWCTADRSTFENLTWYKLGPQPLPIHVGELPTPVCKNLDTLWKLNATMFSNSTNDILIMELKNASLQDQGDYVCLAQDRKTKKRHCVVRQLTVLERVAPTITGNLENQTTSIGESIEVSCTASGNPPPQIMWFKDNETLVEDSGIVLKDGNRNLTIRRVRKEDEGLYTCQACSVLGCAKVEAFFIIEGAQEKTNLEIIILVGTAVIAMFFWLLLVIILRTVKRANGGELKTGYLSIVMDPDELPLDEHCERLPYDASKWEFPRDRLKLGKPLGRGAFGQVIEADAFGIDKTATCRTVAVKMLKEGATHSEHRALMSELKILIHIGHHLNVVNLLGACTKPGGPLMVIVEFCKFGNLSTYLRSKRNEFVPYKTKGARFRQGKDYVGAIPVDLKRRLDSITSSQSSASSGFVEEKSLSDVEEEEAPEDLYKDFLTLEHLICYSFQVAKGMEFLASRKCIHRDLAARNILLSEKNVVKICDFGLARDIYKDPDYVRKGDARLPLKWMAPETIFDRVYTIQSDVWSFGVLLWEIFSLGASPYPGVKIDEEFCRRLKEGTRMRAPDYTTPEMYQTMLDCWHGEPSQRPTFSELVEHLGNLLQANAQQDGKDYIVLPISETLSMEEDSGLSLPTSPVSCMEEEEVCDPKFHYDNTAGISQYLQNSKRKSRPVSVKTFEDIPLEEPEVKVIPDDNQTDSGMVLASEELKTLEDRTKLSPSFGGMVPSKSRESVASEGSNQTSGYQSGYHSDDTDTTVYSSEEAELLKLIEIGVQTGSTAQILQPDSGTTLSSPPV

T1 sequence (P35968 20-1356): as above
Sequence of NLuc-VEGFR2 (full length human VEGFR2 with NanoLuc on its N-terminus) (human) (P35968 20-1356): as above
Sequence of VEGFR2 (P35968 20-1356): as above

Cc1ccc(Nc2nccc(N(C)c3ccc4c(C)n(C)nc4c3)n2)cc1S(N)(=O)=O [Pazopanib]
effect on VEGFR2 internalization by VEGF165a-TMR / cellular location of VEGF165a-TMR (VEGFR2): prevented | NanoBRET % Increase in binding of 10 nM VEGF165a-TMR (NLuc-VEGFR2): 144.8 ± 3.5 (4) %

COc1cc2c(Nc3ccc(Br)cc3F)ncnc2cc1OCC1CCN(C)CC1 [Vandetanib]
effect on VEGFR2 internalization by VEGF165a-TMR / cellular location of VEGF165a-TMR (VEGFR2): prevented | NanoBRET % Increase in binding of 10 nM VEGF165a-TMR (NLuc-VEGFR2): 152.8 ± 7.1 (4) %

COc1cc2c(Oc3ccc4[nH]c(C)cc4c3F)ncnc2cc1OCCCN1CCCC1 [Cediranib]
effect on VEGFR2 internalization by VEGF165a-TMR / cellular location of VEGF165a-TMR (VEGFR2): prevented; also recorded: largely localised to the cell membrane | NanoBRET % Increase in binding of 10 nM VEGF165a-TMR (NLuc-VEGFR2): 139.0 ± 4.4% and 139.0 ± 2.0 (4) %

VEGF165a (recombinant human, R&D Systems) (ligand)
pKi [1]: 9.28 | pKi [2]: 8.93 | pKi [3]: 9.18 | pKi [4]: 9.23 | pKi [5]: 8.99 | Ki [6]: 0.22 nM | pKi [6]: 9.81 | pKi [7]: 9.17

VEGF165a-TMR (fluorescent VEGF165a labeled with 6-TMR-PEG-CBT on a single N-terminal cysteine of each protomer) (ligand)
Kd [8]: 1.18 nM | Kd [9]: 2.27 nM | koff [9]: 0.00183 s⁻¹ | kon [9]: 797000 M⁻¹ s⁻¹ | stoichiometry N [10]: 2 | stoichiometry N [11]: 2 | Kd [12]: 1.14 nM | Kd [13]: 0.92 nM | Kd [6]: 0.85 nM

B1: VEGF121a (recombinant human, R&D Systems) (ligand)
chain: APMAEGGGQNHHEVVKFMDVYQRSYCHPIETLVDIFQEYPDEIEYIFKPSCVPLMRCGGCCNDEGLECVPTEESNITMQIMRIKPHQGQHIGEMSFLQHNKCECRPKKDRARQEKCDKPRR
pKi [14]: 9.47

B2: VEGF145a (recombinant human, R&D Systems) (ligand)
chain: APMAEGGGQNHHEVVKFMDVYQRSYCHPIETLVDIFQEYPDEIEYIFKPSCVPLMRCGGCCNDEGLECVPTEESNITMQIMRIKPHQGQHIGEMSFLQHNKCECRPKKDRARQEKKSVRGKGKGQKRKRKKSRYKSWSVCDKPRR
pKi [14]: 8.74

B3: VEGF189a (recombinant human, R&D Systems) (ligand)
chain: APMAEGGGQNHHEVVKFMDVYQRSYCHPIETLVDIFQEYPDEIEYIFKPSCVPLMRCGGCCNDEGLECVPTEESNITMQIMRIKPHQGQHIGEMSFLQHNKCECRPKKDRARQEKKSVRGKGKGQKRKRKKSRYKSWSVPCGPCSERRKHLFVQDPQTCKCSCKNTDSRCKARQLELNERTCRCDKPRR
pKi [14]: 8.99

B4: VEGF165b (recombinant human, R&D Systems) (ligand)
chain: APMAEGGGQNHHEVVKFMDVYQRSYCHPIETLVDIFQEYPDEIEYIFKPSCVPLMRCGGCCNDEGLECVPTEESNITMQIMRIKPHQGQHIGEMSFLQHNKCECRPKKDRARQENPCGPCSERRKHLFVQDPQTCKCSCKNTDSRCKARQLELNERTCRSLTRKD
pKi [14]: 9.41
